Source: article PMC1523230, “Structural Organization of the 19S Proteasome Lid: Insights from MS of Intact Complexes” (PLoS Biology, 2006)

T1: Rpn3 (S. cerevisiae, UniProt P40016 17-523)
T1 construct: Rpn3, subunit of the 19S proteasome lid, S. cerevisiae; from the measured mass the first 16 residues are truncated; source: endogenous, S. cerevisiae strain RJD2909; in lysate, then co-purified with Rpn11^H12 as the 19S lid (Ni-NTA, Sephacryl S-400 gel filtration)
T1 sequence (looked up): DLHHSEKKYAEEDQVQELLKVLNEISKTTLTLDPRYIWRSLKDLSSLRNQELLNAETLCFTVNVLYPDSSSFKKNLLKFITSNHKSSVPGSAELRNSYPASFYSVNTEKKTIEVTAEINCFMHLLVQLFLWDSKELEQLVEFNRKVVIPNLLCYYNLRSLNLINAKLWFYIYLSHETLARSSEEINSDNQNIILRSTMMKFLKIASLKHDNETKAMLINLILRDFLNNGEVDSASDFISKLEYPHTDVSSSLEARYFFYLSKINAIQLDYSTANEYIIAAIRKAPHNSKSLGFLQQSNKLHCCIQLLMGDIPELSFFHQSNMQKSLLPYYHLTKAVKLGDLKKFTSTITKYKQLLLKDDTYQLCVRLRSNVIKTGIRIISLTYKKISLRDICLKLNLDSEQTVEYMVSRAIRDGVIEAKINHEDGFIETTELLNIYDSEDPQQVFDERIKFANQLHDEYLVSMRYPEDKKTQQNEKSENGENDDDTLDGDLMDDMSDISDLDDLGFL

T2: Rpn7 (S. cerevisiae, UniProt Q06103 1-429)
T2 construct: Rpn7, subunit of the 19S proteasome lid, S. cerevisiae; source: endogenous, S. cerevisiae strain RJD2909; in lysate, then co-purified with Rpn11^H12 as the 19S lid (Ni-NTA, Sephacryl S-400 gel filtration)
T2 sequence (looked up): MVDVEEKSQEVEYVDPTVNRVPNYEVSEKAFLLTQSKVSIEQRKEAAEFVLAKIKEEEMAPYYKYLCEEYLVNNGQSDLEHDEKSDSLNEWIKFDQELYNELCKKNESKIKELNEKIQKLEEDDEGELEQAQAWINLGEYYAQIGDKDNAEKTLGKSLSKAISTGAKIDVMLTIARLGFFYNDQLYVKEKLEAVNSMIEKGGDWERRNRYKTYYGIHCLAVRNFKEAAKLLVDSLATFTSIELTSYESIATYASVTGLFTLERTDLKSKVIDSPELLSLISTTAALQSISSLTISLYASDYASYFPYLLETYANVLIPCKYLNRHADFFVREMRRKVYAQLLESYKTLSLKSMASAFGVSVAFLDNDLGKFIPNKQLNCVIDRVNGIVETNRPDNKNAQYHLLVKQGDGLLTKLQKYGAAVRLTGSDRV

T3: Rpn9 (S. cerevisiae, UniProt Q04062 1-393)
T3 construct: Rpn9, subunit of the 19S proteasome lid, S. cerevisiae; source: endogenous, S. cerevisiae strain RJD2909; in lysate, then co-purified with Rpn11^H12 as the 19S lid (Ni-NTA, Sephacryl S-400 gel filtration)
T3 sequence (looked up): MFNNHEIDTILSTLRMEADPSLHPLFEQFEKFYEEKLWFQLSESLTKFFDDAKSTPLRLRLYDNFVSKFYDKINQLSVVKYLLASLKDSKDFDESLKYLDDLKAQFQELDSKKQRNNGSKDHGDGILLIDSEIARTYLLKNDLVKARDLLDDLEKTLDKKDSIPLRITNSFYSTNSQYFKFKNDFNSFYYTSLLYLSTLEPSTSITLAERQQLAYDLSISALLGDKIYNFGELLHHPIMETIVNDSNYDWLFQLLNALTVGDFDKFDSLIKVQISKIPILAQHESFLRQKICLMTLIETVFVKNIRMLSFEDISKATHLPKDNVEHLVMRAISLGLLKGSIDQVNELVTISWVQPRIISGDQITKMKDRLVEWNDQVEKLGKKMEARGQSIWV

T4: Rpn6 (S. cerevisiae, UniProt Q12377 1-434)
T4 construct: Rpn6, subunit of the 19S proteasome lid, S. cerevisiae; Present in substoichiometric amounts: a part of the purified lid complexes lacks Rpn6; also called Rnp6; source: endogenous, S. cerevisiae strain RJD2909; in lysate, then co-purified with Rpn11^H12 as the 19S lid (Ni-NTA, Sephacryl S-400 gel filtration)
T4 sequence (looked up): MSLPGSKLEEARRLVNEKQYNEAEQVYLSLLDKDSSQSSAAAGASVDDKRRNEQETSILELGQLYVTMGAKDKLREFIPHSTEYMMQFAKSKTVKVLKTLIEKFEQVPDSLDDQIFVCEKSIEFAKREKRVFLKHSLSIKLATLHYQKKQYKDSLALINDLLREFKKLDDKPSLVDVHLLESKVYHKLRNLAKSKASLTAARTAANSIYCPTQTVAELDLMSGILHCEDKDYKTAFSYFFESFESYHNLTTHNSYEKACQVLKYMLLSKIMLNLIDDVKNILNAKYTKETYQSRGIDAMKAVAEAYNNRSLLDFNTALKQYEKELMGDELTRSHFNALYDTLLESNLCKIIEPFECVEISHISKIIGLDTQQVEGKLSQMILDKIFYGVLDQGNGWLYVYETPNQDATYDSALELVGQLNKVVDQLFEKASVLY

B1: Rpn5 (natural protein, S. cerevisiae, UniProt Q12250 1-445, looked up)
chain: MSRDAPIKADKDYSQILKEEFPKIDSLAQNDCNSALDQLLVLEKKTRQASDLASSKEVLAKIVDLLASRNKWDDLNEQLTLLSKKHGQLKLSIQYMIQKVMEYLKSSKSLDLNTRISVIETIRVVTENKIFVEVERARVTKDLVEIKKEEGKIDEAADILCELQVETYGSMEMSEKIQFILEQMELSILKGDYSQATVLSRKILKKTFKNPKYESLKLEYYNLLVKISLHKREYLEVAQYLQEIYQTDAIKSDEAKWKPVLSHIVYFLVLSPYGNLQNDLIHKIQNDNNLKKLESQESLVKLFTTNELMRWPIVQKTYEPVLNEDDLAFGGEANKHHWEDLQKRVIEHNLRVISEYYSRITLLRLNELLDLTESQTETYISDLVNQGIIYAKVNRPAKIVNFEKPKNSSQLLNEWSHNVDELLEHIETIGHLITKEEIMHGLQAK
notes: Rpn5, subunit of the 19S proteasome lid, S. cerevisiae; source: endogenous, S. cerevisiae strain RJD2909; in lysate, then co-purified with Rpn11^H12 as the 19S lid (Ni-NTA, Sephacryl S-400 gel filtration)
B2: Sem1 (natural protein, S. cerevisiae, UniProt O94742 2-89, looked up)
chain: STDVAAAQAQSKIDLTKKKNEEINKKSLEEDDEFEDFPIDTWANGETIKSNAVTQTNIWEENWDDVEVDDDFTNELKAELDRYKRENQ
modifications: N-terminal amino group acetylated (initiator methionine removed)
notes: Sem1, subunit of the 19S proteasome lid, S. cerevisiae (10 kDa); the initiator methionine is removed; source: endogenous, S. cerevisiae strain RJD2909; in lysate, then co-purified with Rpn11^H12 as the 19S lid (Ni-NTA, Sephacryl S-400 gel filtration)
B3: Rpn11^H12 (natural protein, S. cerevisiae, UniProt P43588 1-306, looked up)
chain: MERLQRLMMNSKVGSADTGRDDTKETVYISSIALLKMLKHGRAGVPMEVMGLMLGEFVDDYTVNVVDVFAMPQSGTGVSVEAVDDVFQAKMMDMLKQTGRDQMVVGWYHSHPGFGCWLSSVDVNTQKSFEQLNSRAVAVVVDPIQSVKGKVVIDAFRLIDTGALINNLEPRQTTSNTGLLNKANIQALIHGLNRHYYSLNIDYHKTAKETKMLMNLHKEQWQSGLKMYDYEEKEESNLAATKSMVKIAEQYSKRIEEEKELTEEELKTRYVGRQDPKKHLSETADETLENNIVSVLTAGVNSVAIK
notes: Rpn11, subunit of the 19S proteasome lid, S. cerevisiae; tagging cassette of plasmid pT2H12 integrated directly before the stop codon of RPN11; also called modified Rpn11; source: S. cerevisiae strain RJD2909 (tag integrated at the chromosomal RPN11 locus); in lysate, then purified as the 19S lid (Ni-NTA, Sephacryl S-400 gel filtration); not shown: His12, C-terminal, kept
B4: Rpn8 (natural protein, S. cerevisiae, UniProt Q08723 1-338, looked up)
chain: MSLQHEKVTIAPLVLLSALDHYERTQTKENKRCVGVILGDANSSTIRVTNSFALPFEEDEKNSDVWFLDHNYIENMNEMCKKINAKEKLIGWYHSGPKLRASDLKINELFKKYTQNNPLLLIVDVKQQGVGLPTDAYVAIEQVKDDGTSTEKTFLHLPCTIEAEEAEEIGVEHLLRDVRDQAAGGLSIRLTNQLKSLKGLQSKLKDVVEYLDKVINKELPINHTILGKLQDVFNLLPNLGTPDDDEIDVENHDRINISNNLQKALTVKTNDELMVIYISNLVRSIIAFDDLIENKIQNKKIQEQRVKDKQSKVSDDSESESGDKEATAPLIQRKNKKN
notes: Rpn8, subunit of the 19S proteasome lid, S. cerevisiae; source: endogenous, S. cerevisiae strain RJD2909; in lysate, then co-purified with Rpn11^H12 as the 19S lid (Ni-NTA, Sephacryl S-400 gel filtration)

Tests used:
Rpn3 [1] = target: T1, Rpn3; assay: cross-linking; purified lid 4.8 uM, BS3 at a ratio of 1:50, 2 h on ice, 200 mM NaCl, 50 mM HEPES pH 7.5; bands A-F of a Bis-Tris 4-12% denaturing gel digested with trypsin and identified by MALDI-TOF/TOF MS and MS/MS; conditions: both partners purified
Rpn7 [2] = target: T2, Rpn7; assay: as above; conditions: both partners purified
Rpn11^H12 = target: B3; assay: affinity purification with mass spectrometry; Rpn11^H12 held on Ni-NTA from yeast lysate, gel filtration; subunits identified by MALDI-TOF/TOF peptide mapping and database search; conditions: partners not purified
Rpn8 = target: B4; assay: as above; conditions: partners not purified
Rpn7 [3] = target: T2, Rpn7; assay: as above; conditions: partners not purified
Rpn3 [4] = target: T1, Rpn3; assay: native MS; intact endogenous 19S lid purified through Rpn11^H12, buffer exchanged into 1 M ammonium acetate, nano-electrospray on a high-mass Q-TOF; MS/MS of the 47+ charge state at 100 and 120 V; conditions: both partners purified
Rpn5 [5] = target: B1; assay: as above; conditions: both partners purified
Rpn9 = target: T3, Rpn9; assay: native MS; 185-kDa subcomplex present in the solution of the purified lid, 1 M ammonium acetate; 34+ charge state isolated, MS/MS with argon at 130 V; conditions: both partners purified
Rpn6 = target: T4, Rpn6; assay: as above; conditions: both partners purified
Rpn5 [6] = target: B1; assay: cross-linking; purified lid 4.8 uM, BS3 at a ratio of 1:50, 2 h on ice, 200 mM NaCl, 50 mM HEPES pH 7.5; bands A-F of a Bis-Tris 4-12% denaturing gel digested with trypsin and identified by MALDI-TOF/TOF MS and MS/MS; conditions: both partners purified

Binder: B1
binding result (Rpn3 [1]): binds

Binder: B2
binding result (Rpn3 [1]): binds
binding result (Rpn7 [2]): binds
binding result (Rpn11^H12): binds

Binder: B3
binding result (Rpn8): binds
binding result (Rpn7 [3]): binds
binding result (Rpn3 [4]): binds
binding result (Rpn5 [5]): binds

Binder: B4
binding result (Rpn9): binds
binding result (Rpn6): binds
binding result (Rpn5 [6]): binds
